Measurements: paper PMC11965285

Biological target: Lyn kinase (mouse (endogenous in mouse brain)) (UniProt P25911)
Assay: pull-down

Chain of UniProt P25911 (P25911 whole entry): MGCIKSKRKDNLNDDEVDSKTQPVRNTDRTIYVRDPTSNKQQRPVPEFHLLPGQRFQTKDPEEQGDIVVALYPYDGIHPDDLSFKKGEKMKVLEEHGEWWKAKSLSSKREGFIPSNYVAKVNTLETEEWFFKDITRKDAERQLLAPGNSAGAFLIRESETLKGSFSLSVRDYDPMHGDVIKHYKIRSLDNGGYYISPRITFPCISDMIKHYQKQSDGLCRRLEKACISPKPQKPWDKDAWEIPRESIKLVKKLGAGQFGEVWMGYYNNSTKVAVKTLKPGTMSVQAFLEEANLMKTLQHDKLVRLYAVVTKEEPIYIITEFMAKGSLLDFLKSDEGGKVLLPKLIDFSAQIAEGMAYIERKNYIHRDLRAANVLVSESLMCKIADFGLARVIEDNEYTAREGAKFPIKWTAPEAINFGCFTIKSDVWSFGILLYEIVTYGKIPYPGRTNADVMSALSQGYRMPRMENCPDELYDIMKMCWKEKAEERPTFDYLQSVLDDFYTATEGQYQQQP

Q: With “TLR4-Lyn interacting modulator (TLIM) protein (domain or fragment)” as the substance, how does the IC50 read?
A: Its IC50 is 17.9 nM.
